# Laboratory results: the DeepSol protein solubility set
# Test: soluble on expression in E. coli; label from the status in PepcDB or PDB records
row,Sequence,soluble on expression in E. coli
1,MDFNLNDEQELFVAGIRELMASENWEAYFAECDRDSVYPERFVKALADMGIDSLLIPEEHGGLEAGFVTVAAVWMELGRLGAPTYVLYQLPGGFNTFLREGTQEQIDKIMAFRGTGKQMWNSAITEPGAGSDVGSLKTTYTRKNGKVYLNGSKCFITSSAYTPYIVVMARDGASPDKPVYTEWFVDMSKAGIKVNKLEKLGLRMDSCCEITFDDVELDEKDMFGREGNGFNRVKEEFDHERFLVALTNYGTAMCAFEDAARYANQRVQFGEAIGRFQLIQEKFAHMAIKLNSMKNMLLEAAWKADNGTITSGDAAMCKYFCANAAFEVVDTAMQVLGGVGIAGNHRITRFWRDLRVDRVSGGSDEMQILTLGRAVLKQYR,not soluble
2,MDGDIIDQYRFPSPHPGIDVFFVTYMSQGLKVKGFLAAPKRKGVYDGFLYLRGGIKNVGQVRVPRLVQFASQGFVVFAPLYRGNGGGEGNEDFAGDDRYDALAGFHLLRRHPLVHPGRVHMFGFSRGGAMALHAAVMAEGVCSVAVWGGVADLELTYWERPDLRRMMKRVIGGTPNKCPERYRHRTPLYHLERLKAPVLIIHGGRDENVSIEHAWRLERRLKQLGKPVTAWYFPEFTHYFPPQANRETVQRLTEWMKQQPTM,not soluble
3,MDGMGTLTRYLEEAMARARYELIADEEPYYGEIPDLPGVWATGKSLKECEANLQAALEDWLLFLLSRGETPPPLGEVRIELPHGEAA,soluble
4,MDHRAQAREVFVRAQLEAVQKAITKNEVPLKPKHARTIIVGTHKEKSSGIFWHTVGRIQLEKHPVLTWKFCHLVHKLLRDGHRKVPEETYRYVNRFTQLSQFWKHLNTSGYGPCIESYCKLLHDRVTFHNKYPVVPGKLDLNDSQLKTLEGDLDNMFEMTIDMLDQMDALLVLQDRVYEMMNSLRWNSLIPQGQCMLSPLIIAILDTSKFYDYLVKMIFKLHSQVPPDALEGHRSRFRTIFERTKKFYEESSNLQYFKYLVSIPTLPSHAPNFLQQSDLESYRTPHAYLHSEGSEDGTSLNGHDGELLNLAEAEPQQASPSSQPDPREEQIVMLSRAVEDEKFAKERLIQEARSRIEQYENRLLQMQGEFDHAKREADENREEAQRLKNELALRDASRTQTDDARVKEAELKATAAEERFNKMKGVYEKFRSEHVLALTKLGDIQKQLEASEKSKFDKDEEITALNRKVEEAQREAGRALTKAEGDAGAVDEMRTQLVKADIEVEELKRTIDHLRESHANQLVQSSAEETNKIRLAELEVAKESGVGITQMFDHCEDALQNATSITYPPHLAQSAMNNLVNILSNERLDEPLATKDNVFAGHLLSTTLSAAASAAYTASIESYEGVNDQCKKVLAAAKVAFSDDSALSRADKMKLLRQDIQTLNSLMISLPLQTDIDKDVVGNELEQEMRRMDDAIRRAVQEIEAIQRRARESSDGIRLEVNESILANCQALMSVIMQLVIASRELQTEIVAAGKAGGSPAEFYKRNHQWTEGLLSAAKAVGVAARVLVESADGVVTGKGKFEHLIVAAQEIAASTAQLFVSSRVKADKDSSKLDALSVAAKAVNQNTAQVVAAVKNGQTTLNDEGSLDFSYLSLHAAKKEEMESQVKMLELEQSLNQERAKLAALRKQHYHMAQLVANKEGEEAQE,not soluble
5,MDICSRNKKLTIRRPAILVALALLLCSCKSTPPESMVTPPAGSKPPATTQQSSQPMRGIWLATVSRLDWPPVSSVNISNPTSRARVQQQAMIDKLDHLQRLGINTVFFQVKPDGTALWPSKILPWSDLMTGKIGENPGYDPLQFMLDEAHKRGMKVHAWFNPYRVSVNTKPGTIRELNSTLSQQPASVYVQHRDWIRTSGDRFVLDPGIPEVQDWITSIVAEVVSRYPVDGVQFDDYFYTESPGSRLNDNETYRKYGGAFASKADWRRNNTQQLIAKVSHTIKSIKPGVEFGVSPAGVWRNRSHDPLGSDTRGAAAYDESYADTRRWVEQGLLDYIAPQIYWPFSRSAARYDVLAKWWADVVKPTRTRLYIGIAFYKVGEPSKIEPDWMINGGVPELKKQLDLNDAVPEISGTILFREDYLNKPQTQQAVSYLQSRWGS,soluble
6,MDIPQDSYDLVVVGGGTSGVFAAISAARRGLRVALVEASGMLGGTLTQVTLGGICGAWTGTAHTQVVHGLFDEFVHAMRKAQACDGLYSYGHVTALPYEPVKVRYLLDQLLPPNVTTFFHSRLFAVDMEGERIARVHLAGVEGPFSLAARAYVDATGNASLAGLCATPLRRGENGTVQAASSMFRVIGADVDPRVRDVRTEIRLAIEKHNASGQAEAFKRSAVAVYVHPDQRLLHFNATRVYFESTADDALAAALDMSRVETEARKEAFRLVELLKREVDGFANIEIVDLGSSVGVRDSRNIVNDHPLTEAMVRDGDKPANSVAYSAWPIEFHGSNTQTHWEPLEGDRYYGIPYESCLPQGIQNALVIGRAISSTPLAQASCRVTAPCIQMGESAGIAAHELVASSSRTAFSELASMKFILEHHHHHH,not soluble
